Source: paper PMC9029033

Target: T1, VPA0041-His (Vibrio parahaemolyticus RIMD 2210633) (UniProt Q87K57)
T1 sequence: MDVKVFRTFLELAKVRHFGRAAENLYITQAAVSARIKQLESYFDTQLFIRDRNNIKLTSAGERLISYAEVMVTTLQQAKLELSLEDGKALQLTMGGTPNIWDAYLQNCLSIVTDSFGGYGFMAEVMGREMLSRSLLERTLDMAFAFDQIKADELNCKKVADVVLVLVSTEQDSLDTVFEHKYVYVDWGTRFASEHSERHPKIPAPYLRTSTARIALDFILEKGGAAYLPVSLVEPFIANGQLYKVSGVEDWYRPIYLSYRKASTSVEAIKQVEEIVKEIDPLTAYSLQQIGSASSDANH
Experiment: EMSA
Conditions: EMSA: 20 uL, 10 ng probe (15 ng in Fig 5 legend), 1 ug poly(dI:dC), 4 uL 5x binding buffer (10 mM NaCl, 0.1 mM DTT, 0.1 mM EDTA, 10 mM Tris, pH 7.4), 25 C …

Sequence	binding
CATCTTAGTCTCCTTAGTTTATCACTATTTCTTTCAGGCCTTGGGATATTCCCTAGTCACTAACTAGAGGCGGTCGCTTGCCACTAATGATTAATTTGAAAATTAAAAATTTTCTAAAAAAGATCAAAATTGATGATTTTTAGTGACTTGCATTCCACTAAGTTGGGGTTTGCTACCGTTTTAGCGTTAGTTTCCGATGTGCTTTGATCGGCATCGTCGACCTGCAGGCA (double strand) [vpa1548 promoter (promoter-1)]	binds
CATGCATCTTTCCTTACAGTCGGCTCGAATACGCCAAGATACAAACAAGATACATCGTCGACCTGCAGGCA (double strand) [vpa0264 promoter-3]	no binding
TGCCTGCAGGTCGACGATAGACATACTTTCAAGGCATAGAGTTACGCCAATTACCAATGAGAGAGGGAGTAAGCTCGTG (double strand) [vpa1550 promoter-4]	binds
TGCCTGCAGGTCGACGATCAAGTCAATGTTTTAAAAGAATATTCAAGTTAGGCACGTATCTTGCGATAAGACATACTTTCAAGGCATAGAGTTACGCCAATTACCAATGAGAGAGGGAGTAAGCTCGTG (double strand) [vpa1550 promoter-3]	binds
TGCCTGCAGGTCGACGATGGAACACATAAGGTGGAAAATACACTTCCTCTCAAATTTAAATAGTATCGCAAGTCAATGTTTTAAAAGAATATTCAAGTTAGGCACGTATCTTGCGATAAGACATACTTTCAAGGCATAGAGTTACGCCAATTACCAATGAGAGAGGGAGTAAGCTCGTG (double strand) [vpa1550 promoter-2]	binds
TGCCTGCAGGTCGACGATGTTTGTCCTGTCGAAAGAATTCCTAATAACAGTATCCACTTTGAGGAAATTAGAGTTTTCCCCCTAATTTTTTTGCTTTCCGTAAACCGGAAGTTTGGTTTCCACTCTTGTTTGTAAGTCATTGATAAATATAAATAAAATTTATGGCACGTATCTTGTTTGTATCTTGGCGTATTCGAGCCGACTGTAAGGAAAGATGCATG (double strand) [vpa0264 promoter]	binds
TGCCTGCAGGTCGACGATTAGAGTTTTCCCCCTAATTTTTTTGCTTTCCGTAAACCGGAAGTTTGGTTTCCACTCTTGTTTGTAAGTCATTGATAAATATAAATAAAATTTATGGCACGTATCTTGTTTGTATCTTGGCGTATTCGAGCCGACTGTAAGGAAAGATGCATG (double strand) [vpa0264 promoter-1]	binds
TGCCTGCAGGTCGACGATTCCACTCTTGTTTGTAAGTCATTGATAAATATAAATAAAATTTATGGCACGTATCTTGTTTGTATCTTGGCGTATTCGAGCCGACTGTAAGGAAAGATGCATG (double strand) [vpa0264 promoter-2]	binds
TGCCTGCAGGTCGACGATTTAGTCGCCTTGTCTTATAGGGAAACACTAGATGTTTTCGAGAGGAAGGCGGAACACATAAGGTGGAAAATACACTTCCTCTCAAATTTAAATAGTATCGCAAGTCAATGTTTTAAAAGAATATTCAAGTTAGGCACGTATCTTGCGATAAGACATACTTTCAAGGCATAGAGTTACGCCAATTACCAATGAGAGAGGGAGTAAGCTCGTG (double strand) [vpa1550 promoter (promoter-1)]	binds
